Experimental data: paper PMC5555194

Biological target: C3d (human), P01024
Assay: SPR; C3d amine-coupled to a different flow cell of the same C1 chip; CFH (from 2.5 to 0.019 uM), or 0.6 uM CFH premixed with 1.2 uM PspCN, flowed over; equilibrium plots
Details: remark: other sources report otherwise

C3d (human), P01024, sequence (P01024 1002-1303): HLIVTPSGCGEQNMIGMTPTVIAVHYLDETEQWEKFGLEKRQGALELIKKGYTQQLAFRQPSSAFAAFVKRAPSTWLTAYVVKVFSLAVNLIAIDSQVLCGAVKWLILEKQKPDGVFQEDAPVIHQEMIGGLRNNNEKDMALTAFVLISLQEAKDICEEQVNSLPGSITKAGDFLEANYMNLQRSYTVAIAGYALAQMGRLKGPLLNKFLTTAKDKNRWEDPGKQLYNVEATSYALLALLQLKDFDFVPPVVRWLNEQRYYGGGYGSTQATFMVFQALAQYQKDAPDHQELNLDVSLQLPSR

Kd: 2.1 µM
B1: V62-CFH (recombinant human complement factor H, variant Val-62, Tyr-402, Glu-936), P08603 19-1231 (natural protein)
chain: EDCNELPPRRNTEILTGSWSDQTYPEGTQAIYKCRPGYRSLGNVIMVCRKGEWVALNPLRKCQKRPCGHPGDTPFGTFTLTGGNVFEYGVKAVYTCNEGYQLLGEINYRECDTDGWTNDIPICEVVKCLPVTAPENGKIVSSAMEPDREYHFGQAVRFVCNSGYKIEGDEEMHCSDDGFWSKEKPKCVEISCKSPDVINGSPISQKIIYKENERFQYKCNMGYEYSERGDAVCTESGWRPLPSCEEKSCDNPYIPNGDYSPLRIKHRTGDEITYQCRNGFYPATRGNTAKCTSTGWIPAPRCTLKPCDYPDIKHGGLYHENMRRPYFPVAVGKYYSYYCDEHFETPSGSYWDHIHCTQDGWSPAVPCLRKCYFPYLENGYNQNYGRKFVQGKSIDVACHPGYALPKAQTTVTCMENGWSPTPRCIRVKTCSKSSIDIENGFISESQYTYALKEKAKYQCKLGYVTADGETSGSITCGKDGWSAQPTCIKSCDIPVFMNARTKNDFTWFKLNDTLDYECHDGYESNTGSTTGSIVCGYNGWSDLPICYERECELPKIDVHLVPDRKKDQYKVGEVLKFSCKPGFTIVGPNSVQCYHFGLSPDLPICKEQVQSCGPPPELLNGNVKEKTKEEYGHSEVVEYYCNPRFLMKGPNKIQCVDGEWTTLPVCIVEESTCGDIPELEHGWAQLSSPPYYYGDSVEFNCSESFTMIGHRSITCIHGVWTQLPQCVAIDKLKKCKSSNLIILEEHLKNKKEFDHNSNIRYRCRGKEGWIHTVCINGRWDPEVNCSMAQIQLCPPPPQIPNSHNMTTTLNYRDGEKVSVLCQENYLIQEGEEITCKDGRWQSIPLCVEKIPCSQPPQIEHGTINSSRSSQESYAHGTKLSYTCEGGFRISEENETTCYMGKWSSPPQCEGLPCKSPPEISHGVVAHMSDSYQYGEEVTYKCFEGFGIDGPAIAKCLGEKWSHPPSCIKTDCLSLPSFENAIPMGEKKDVYKAGEQVTYTCATYYKMDGASNVTCINSRWTGRPTCRDTSCVNPPTVQNAYIVSRQMSKYPSGERVRYQCRSPYEMFGDEEVMCLNGNWTEPPQCKDSTGKCGPPPPIDNGDITSFPLSVYAPASSVEYQCQNLYQLEGNKRITCRNGQWSEPPKCLHPCVISREIMENYNIALRWTAKQKLYSRTGESVEFVCKRGYRLSSRSHTLRTTCWDGKLEYPTCAKR
modifications: here or on the partner: N-glycans trimmed to the first GlcNAc residues (EndoHf)
